Measurements as given in paper doi:10.1101/2025.09.04.674342, “Tandem association of CLOCK:BMAL1 complexes on DNA enables recruitment of CBP/p300 through multivalent interactions” (bioRxiv, 2025).

B1: BMAL1 TAD (residues 579–626) (domain or fragment)
chain: not shown
notes: numbers count on: isoform Q9WTL8-4; Used at natural abundance or uniformly 15N-labelled; also called 15N BMAL1 TAD; source: E. coli Rosetta (DE3), purified (Ni-NTA, TEV cleavage, Superdex 75); not shown: His6-NusA-XL (HNXL), N-terminal, cleaved
B3: CBP KIX domain (residues 586–672) (domain or fragment)
chain: not shown
notes: CBP KIX domain, mouse, UniProt P45481, residues 586–672; tagless; Plasmid was a gift from Peter Wright; Used at natural abundance or uniformly 15N-labelled; also called WT KIX; 15N CBP KIX; source: E. coli Rosetta (DE3), purified (Ni-NTA through native histidines, size exclusion)
B4: [5,6] TAMRA-labeled BMAL1 minimal TAD peptide (residues 594–626), WT (peptide)
peptide: not shown
modifications: 5,6-TAMRA on the N-terminus; free carboxyl C-terminus
notes: BMAL1 minimal TAD with helix and switch regions, residues 594–626; numbers count on: isoform Q9WTL8-4; also called [5,6]; TAMRA-BMAL1 TAD probe; native TAD probe; source: synthetic peptide (Bio-Synthesis, 95% purity)
B5: CBP TAZ2 domain (residues 1764–1855; C1776A, C1784A, C1827A, C1828A) (domain or fragment, mouse, UniProt P45481 1764-1855, looked up)
chain: SPQESRRLSIQRAIQSLVHAAQCRNANCSLPSCQKMKRVVQHTKGCKRKTNGGCPVCKQLIALAAYHAKHCQENKCPVPFCLNIKHKLRQQQ
notes: CBP TAZ2 domain, mouse, UniProt P45481, residues 1764–1855, with four cysteine to alanine mutations that increase solubility and stability; source: E. coli (BL21), purified (amylose sepharose, S-sepharose, Superdex 75)

How the values were obtained:
[1] = target: B3; assay: ITC; 220–230 μM CBP KIX WT or 3mut titrated into 20–25 μM BMAL1 TAD WT or L606A/L607A; 25°C; 10 mM MES pH 6.5, 50 mM NaCl; one-site model; details: both partners purified
[2] = target: B5; assay: NMR titration; 15N-1H HSQC of 100 μM 15N BMAL1 TAD WT or L606A/L607A with stepwise additions of CBP KIX (WT or 3mut), TAZ1 or TAZ2; 25°C; 10 mM MES pH 6.5, 50 mM NaCl, 10% D2O; KD from fits of concentration-dependent CSPs, apparent; details: both partners purified
[3] = target: B1; assay: ITC; 220–230 μM CBP KIX WT or 3mut titrated into 20–25 μM BMAL1 TAD WT or L606A/L607A; 25°C; 10 mM MES pH 6.5, 50 mM NaCl; one-site model; details: both partners purified
[4] = target: B5; assay: fluorescence polarisation; CBP KIX, TAZ1 or TAZ2 titrated onto [5,6] TAMRA-labeled BMAL1 minimal TAD probes (25 nM in the legend, 50 nM in the methods); 10 mM MES pH 6.5, 50 mM NaCl, 0.05% Tween-20; room temperature; one-site specific binding with Hill coefficient; apparent KDs; details: both partners purified
[5] = target: B4; assay: as above; details: both partners purified
[6] = target: B3; assay: NMR titration; 15N-1H HSQC of 100 μM 15N CBP KIX with stepwise additions of natural abundance BMAL1 TAD or truncated peptides; 25°C; 10 mM MES pH 6.5, 50 mM NaCl, 10% D2O; details: both partners purified
[7] = target: the molecule itself; assay: cryo-EM structure; two CLOCK:BMAL1 bHLH-PAS-AB protomers on a nucleosome with tandem E-boxes 6 bp apart (SHL +3.9/+5.1); GraFix glutaraldehyde cross-linked; 4.1 Å overall, 8–12 Å in the PAS region

Q: For B1, which Kd [1] is on record?
A: ~2000 nM

Q: Does B1 bind [2]?
A: binds

B2: BMAL1 TAD L606A/L607A (residues 579–626) (domain or fragment)
chain: not shown
notes: numbers count on: isoform Q9WTL8-4; Used at natural abundance or 15N-labelled; also called L606A/L607A TAD mutant; 15N BMAL1 TAD L606A/L607A; source: E. coli Rosetta (DE3), purified (Ni-NTA, TEV cleavage, Superdex 75); not shown: His6-NusA-XL (HNXL), N-terminal, cleaved
Q: Does B2 bind [2]?
A: binds

Q: B3 was tested. Which “stoichiometry N” value [3] did it give?
A: 0.8 to 1.1

Q: Does B4 bind [4]?
A: binds

Q: With B5 as the binder, how does the “fold lower affinity than TAZ1” value [5] read?
A: ~20 fold

B6: BMAL1 linker-switch peptide (residues 613–626) (peptide, UniProt Q9WTL8-4 613-626, looked up)
peptide: LGGPVDFSDLPWPL
notes: BMAL1, mouse, residues 613–626 (linker and switch of the TAD); numbers count on: isoform Q9WTL8-4; source: synthetic peptide (Pierce, 95% purity)
Q: Does B6 bind [6]?
A: binds

B7: CLOCK:BMAL1 bHLH-PAS-AB heterodimer (complex)
chain 1: VEEDDKDKAKRVSRNKSEKKRRDQFNVLIKELGSMLPGNARKMDKSTVLQKSIDFLRKHKETTAQSDASEIRQDWKPTFLSNEEFTQLMLEALDGFFLAIMTDGSIIYVSESVTSLLEHLPSDLVDQSIFNFIPEGEHSEVYKILSTHLLESDSLTPEYLKSKNQLEFCCHMLRGTIDPKEPSTYEYVRFIGNFKSLTSVSTSTHNGFEGTIQRTHRPSYEDRVCFVATVRLATPQFIKEMCTVEEPNEEFTSRHSLEWKFLFLDHRAPPIIGYLPFEVLGTSGYDYYHVDDLENLAKCHEHLMQYGKGKSCYYRFLTKGQQWIWLQTHYYITYHQWNSRPEFIVCTHTVVSYAEVRAERRRELGIEESL
chain 2: not shown
notes: CLOCK bHLH PAS-AB, mouse, UniProtKB O08785, residues 26–395; BMAL1 bHLH PAS-AB, mouse, UniProtKB Q9WTL8-4, residues 62–441; numbers count on: isoform Q9WTL8-4; Purified on Ni-NTA and cleaved with His-TEV; also called CLOCK:BMAL1 protomer; source: insect cells (Spodoptera frugiperda or Hi5), purified (Ni-NTA, TEV cleavage, heparin, Superdex 200); copies: 1 + 1
Q: Does B7 bind [7]?
A: binds

B8: trans-locked BMAL1 switch peptide P625A (FSDLPWAL) (peptide)
peptide: FSDLPWAL
notes: numbers count on: isoform Q9WTL8-4; All trans; also called P625A switch; trans-locked switch; source: synthetic peptide (solid phase, Fmoc chemistry; C18 HPLC)
Q: Does B8 bind [6]?
A: binds
